Values belong to the binder of their own block, whether it stands above or below them.
B3: full-length mouse DNA2 (enzyme)
chain: MEPLDELDLLLLEEDGGAEAVPRVELLRKKADALFPETVLSRGVDNRYLVLAVETSQNERGAEEKRLHVTASQDREHEVLCILRNGWSSVPVEPGDIVHLEGDCTSEPWIIDDDFGYFILYPDMMISGTSVASSIRCLRRAVLSETFRGSDPATRQMLIGTILHEVFQKAISESFAPERLQELALQTLREVRHLKEMYRLNLSQDEILCEVEEYLPSFSKWAEDFMRKGPSSEFPQMQLSLPSDGSNRSSPCNIEVVKSLDIEESIWSPRFGLKGKIDVTVGVKIHRDCKMKYKVMPLELKTGKESNSIEHRSQVVLYTLLSQERREDPEAGWLLYLKTGQMYPVPANHLDKRELLKLRNWLAASLLHRVSRAAPGEEARLSALPQIIEEEKTCKYCSQIGNCALYSRAVEEQGDDASIPEAMLSKIQEETRHLQLAHLKYFSLWCLMLTLESQSKDNRKTHQSIWLTPASELEESGNCVGNLVRTEPVSRVCDGQYLHNFQRKNGPMPATNLMAGDRIILSGEERKLFALSKGYVKKMNKAAVTCLLDRNLSTLPATTVFRLDREERHGDISTPLGNLSKLMESTDPSKRLRELIIDFREPQFIAYLSSVLPHDAKDTVANILKGLNKPQRQAMKRVLLSKDYTLIVGMPGTGKTTTICALVRILSACGFSVLLTSYTHSAVDNILLKLAKFKVGFLRLGQSHKVHPDIQKFTEEEICRSRSIASLAHLEELYNSHPIVATTCMGINHPIFSRKTFDFCIVDEASQISQPVCLGPLFFSRRFVLVGDHQQLPPLVVNREARALGMSESLFKRLERNESAVVQLTVQYRMNRKIMSLSNKLTYAGKLECGSDRVANAVLALPNLKDARLSLQLYADYSDSPWLAGVLEPDNPVCFLNTDKVPAPEQVENGGVSNVTEARLIVFLTSTFIKAGCSPSDIGVIAPYRQQLRIISDLLARSSVGMVEVNTVDKYQGRDKSLILVSFVRSNEDGTLGELLKDWRRLNVALTRAKHKLILLGSVSSLKRFPPLGTLFDHLNAEQLILDLPSREHESLSHILGDCQRD

Experiments:
full-length mouse DNA2 = molecular target: B3; assay: cryo-EM structure
[1] = molecular target: T1, human primase small subunit PriS (human, UniProt P49642 1-420); assay: cryo-EM structure
T1 sequence: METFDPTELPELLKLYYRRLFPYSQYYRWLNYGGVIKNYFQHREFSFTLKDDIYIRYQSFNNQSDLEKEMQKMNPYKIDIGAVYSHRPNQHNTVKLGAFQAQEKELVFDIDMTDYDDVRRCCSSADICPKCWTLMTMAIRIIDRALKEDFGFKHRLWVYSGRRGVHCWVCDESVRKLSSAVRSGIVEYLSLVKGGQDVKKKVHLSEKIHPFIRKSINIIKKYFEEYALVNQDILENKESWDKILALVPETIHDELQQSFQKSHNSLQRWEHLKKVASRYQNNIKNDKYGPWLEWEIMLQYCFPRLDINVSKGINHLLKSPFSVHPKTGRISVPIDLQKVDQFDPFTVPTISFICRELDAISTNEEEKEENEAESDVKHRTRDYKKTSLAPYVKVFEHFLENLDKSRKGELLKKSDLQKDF

[2] = molecular target: T2, human MMS19 (subunit of the purified CTC) (human, UniProt Q96T76 1-1030); assay: cryo-EM structure
T2 sequence: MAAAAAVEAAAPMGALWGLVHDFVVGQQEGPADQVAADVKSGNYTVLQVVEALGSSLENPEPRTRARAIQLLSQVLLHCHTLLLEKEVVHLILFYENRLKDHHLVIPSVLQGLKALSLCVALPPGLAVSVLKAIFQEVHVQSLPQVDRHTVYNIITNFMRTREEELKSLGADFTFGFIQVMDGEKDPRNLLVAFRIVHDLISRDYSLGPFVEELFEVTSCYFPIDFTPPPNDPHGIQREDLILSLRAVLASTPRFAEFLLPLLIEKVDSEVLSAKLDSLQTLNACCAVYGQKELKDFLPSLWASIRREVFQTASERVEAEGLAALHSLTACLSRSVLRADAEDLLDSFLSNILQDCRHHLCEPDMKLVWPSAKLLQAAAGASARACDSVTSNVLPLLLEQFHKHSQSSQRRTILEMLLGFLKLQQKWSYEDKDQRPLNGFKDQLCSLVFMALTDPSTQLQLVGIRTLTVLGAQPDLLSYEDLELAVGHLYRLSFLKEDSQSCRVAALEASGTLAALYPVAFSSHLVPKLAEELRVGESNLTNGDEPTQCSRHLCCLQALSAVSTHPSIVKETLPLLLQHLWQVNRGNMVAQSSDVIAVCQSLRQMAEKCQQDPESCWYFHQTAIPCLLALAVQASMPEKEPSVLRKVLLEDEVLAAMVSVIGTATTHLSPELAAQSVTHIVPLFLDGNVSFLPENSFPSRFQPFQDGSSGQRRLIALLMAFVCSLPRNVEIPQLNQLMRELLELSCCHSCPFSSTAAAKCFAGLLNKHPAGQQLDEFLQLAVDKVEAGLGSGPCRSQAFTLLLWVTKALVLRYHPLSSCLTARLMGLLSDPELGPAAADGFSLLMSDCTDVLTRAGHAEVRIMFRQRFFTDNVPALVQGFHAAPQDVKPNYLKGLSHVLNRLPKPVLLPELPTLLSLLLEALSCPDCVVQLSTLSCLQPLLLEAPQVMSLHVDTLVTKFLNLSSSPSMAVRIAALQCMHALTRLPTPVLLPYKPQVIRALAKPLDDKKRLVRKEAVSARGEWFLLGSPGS

[3] = molecular target: full-length human CIA targeting complex (MMS19-CIAO1-CIAO2B) (human, UniProt Q96T76;O76071;Q9Y3D0); assay: cryo-EM structure
Sequence of full-length human CIA targeting complex (MMS19-CIAO1-CIAO2B) (O76071 whole entry, chain 2 of 2): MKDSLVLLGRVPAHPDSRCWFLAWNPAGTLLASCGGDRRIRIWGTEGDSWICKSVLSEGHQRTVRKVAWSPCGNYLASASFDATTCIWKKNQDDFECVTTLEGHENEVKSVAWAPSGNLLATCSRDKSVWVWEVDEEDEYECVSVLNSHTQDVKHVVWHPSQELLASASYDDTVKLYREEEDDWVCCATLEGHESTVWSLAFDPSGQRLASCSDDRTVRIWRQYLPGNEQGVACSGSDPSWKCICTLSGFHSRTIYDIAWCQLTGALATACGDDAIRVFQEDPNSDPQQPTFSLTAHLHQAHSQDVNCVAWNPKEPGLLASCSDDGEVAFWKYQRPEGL
Sequence of full-length human CIA targeting complex (MMS19-CIAO1-CIAO2B) (Q9Y3D0 whole entry, chain 3 of 2): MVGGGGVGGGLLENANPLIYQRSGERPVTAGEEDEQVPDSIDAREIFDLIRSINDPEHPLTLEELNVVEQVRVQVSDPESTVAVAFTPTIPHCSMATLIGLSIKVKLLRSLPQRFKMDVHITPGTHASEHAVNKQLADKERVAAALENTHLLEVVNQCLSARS

[4] = molecular target: T3, Drosophila melanogaster CIAO2B (Drosophila melanogaster, UniProt Q9VTC4 1-156); assay: crystal structure
T3 sequence: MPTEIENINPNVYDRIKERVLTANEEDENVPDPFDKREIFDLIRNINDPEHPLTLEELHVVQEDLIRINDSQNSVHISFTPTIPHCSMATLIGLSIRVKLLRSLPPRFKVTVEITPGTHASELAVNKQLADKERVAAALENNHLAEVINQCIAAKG

[5] = molecular target: T4, Drosophila melanogaster CIAO1-CIAO2B core complex (Drosophila melanogaster, UniProt Q7K1Y4;Q9VTC4); assay: crystal structure
T4 sequence 1: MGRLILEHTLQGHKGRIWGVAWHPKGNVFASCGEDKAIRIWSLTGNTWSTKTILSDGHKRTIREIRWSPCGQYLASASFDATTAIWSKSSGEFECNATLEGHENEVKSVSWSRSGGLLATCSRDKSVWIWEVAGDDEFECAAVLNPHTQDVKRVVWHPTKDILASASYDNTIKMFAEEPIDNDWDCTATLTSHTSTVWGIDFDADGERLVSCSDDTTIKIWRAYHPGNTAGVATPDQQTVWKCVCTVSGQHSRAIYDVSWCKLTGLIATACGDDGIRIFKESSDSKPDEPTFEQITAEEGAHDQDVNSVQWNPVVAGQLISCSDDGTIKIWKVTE
T4 sequence 2: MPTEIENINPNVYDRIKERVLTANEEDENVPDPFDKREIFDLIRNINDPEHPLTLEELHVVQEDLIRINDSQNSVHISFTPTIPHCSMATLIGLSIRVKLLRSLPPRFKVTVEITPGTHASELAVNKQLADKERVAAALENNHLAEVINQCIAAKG

binding result (full-length mouse DNA2): binds
binding result [1]: binds
B1: human CIAO1 (subunit of the purified CTC) (natural protein)
chain: not shown

binding result [2]: binds
B2: human primase large subunit PriL (natural protein)
chain: MEFSGRKWRKLRLAGDQRNASYPHCLQFYLQPPSENISLIEFENLAIDRVKLLKSVENLGVSYVKGTEQYQSKLESELRKLKFSYRENLEDEYEPRRRDHISHFILRLAYCQSEELRRWFIQQEMDLLRFRFSILPKDKIQDFLKDSQLQFEAISDEEKTLREQEIVASSPSLSGLKLGFESIYKIPFADALDLFRGRKVYLEDGFAYVPLKDIVAIILNEFRAKLSKALALTARSLPAVQSDERLQPLLNHLSHSYTGQDYSTQGNVGKISLDQIDLLSTKSFPPCMRQLHKALRENHHLRHGGRMQYGLFLKGIGLTLEQALQFWKQEFIKGKMDPDKFDKGYSYNIRHSFGKEGKRTDYTPFSCLKIILSNPPSQGDYHGCPFRHSDPELLKQKLQSYKISPGGISQILDLVKGTHYQVACQKYFEMIHNVDDCGFSLNHPNQFFCESQRILNGGKDIKKEPIQPETPQPKPSVQKTKDASSALASLNSSLEMDMEGLEDYFSEDS

Binder: B3
binding result [3]: binds

binding result [4]: binds
binding result [5]: binds
B4: C-terminal fragment of mouse MMS19 (residues 911-1031) (domain or fragment)
chain: ELPTLLSLLLEALSCPDSVVQLSTLSCLQPLLLEAPQIMSLHVDTLVTKFLNLSSSYSMAVRIAALQCMHALTRLPTSVLLPYKSQVIRALAKPLDDKKRLVRKEAVSARGEWFLLGSPGS
